Measured values from patent publication US20210253725A1 (BIONTECH, published 2021).
Numbering of substitutions follows the chain as printed. Names may count otherwise.

B1: P018.S.04.A.G05 (antibody, V domains shown)
VH: QSVEESGGRLVTPGTPLTLTCTVSGFSLSTYYMSWVRQAPGKSLEWIGCIHGDDGSTWYASWVQGRFTISKASTTVDLQIASPTTEDTATYFCARGLPYWPNDGDFNLWGQGTLVTVSS
VL: TQVLTQTPSPVSAAVGGTVSISCQSSQSVYNNNWLSWFQQKPGQPPKLLVYGASTLASGVPSRFKGSGSGTQFTLTISDLESDDAATYYCAGGYYTTSDNGFGGGTEVVVK
notes: V regions on human Ig constant parts; also called AB134_14
B2: P018.S.03.A.E03 (antibody, V domains shown)
VH: QSVEESGGRLVTPGTPLTLTCTVSGFSLSTYGMSWVRQAPGKGLEWIGIIDAGDSPYYASWVKGRFTISKTSTTVDLKITSLTTEDTATYFCARIAGSNHGPFSLWGPGTLVTVSS
VL: DVVMTQTPASVSEPVGGTVTINCQASEFISNYLAWYQQKPGQPPKLLIYGASTLASGVPSRFSGSGSGTQFTLTISDLESDDAATYYCQCTAYGSGYVGFGGGTEVVVK
notes: V regions on human Ig constant parts; also called AB134_4
B3: P018.S.12.A.G05 (antibody, V domains shown)
VH: B2 VH with A52G, V62A, K63E, L82P, S104D
VL: B2 VL with S63K, Q70D, D81A, G96S
notes: V regions on human Ig constant parts; also called AB134_87
B4: P018.S.05.A.F05 (as anti-CD27 antibody) (antibody, V domains shown)
VH: QSVEESGGRLVTPGTPLTLTCTVSGFSLSNYYMTWVRQAPGKGLEYIGIIGSGVSTYYANWAKGRFTISKASSTTVDLKMTSPTTEDTATYFCARDMYVGNWGDWGLWGQGTLVTVSS
VL: AYDMTQTPASVEVAVGGTVTIKCQASQSISNNLNWYQQKPGQPPKLLIYSVSTLASGVPSRFKGSGSGTDYTLTISGVESVDAATYYCQQDYRIGDLDSAFGGGTEVVVK
notes: V regions on human Ig constant parts; also called AB27_92
B5: P018.S.09.A.A02 (antibody, V domains shown)
VH: QSVEESGGRLVTPGTPLTLTCTASGFSLSNFYMSWVRQAPGKGLEWIGIISTGGSAYYASWAKGRFTSSKTSTTVDLQITSPTTEDTATYFCARGSGTDGAWLYYGIDLWGPGTLVTVSS
VL: DVVMTQTPASVEAAVGGTVTIKCQASENIGHALAWYQQKPGQPPKLLIYRTSTLASGVPSRFSGSGSGTQFSLTISDLDSADAATYFCQINYGGGSGGYFAFGGGTEVVVK
notes: V regions on human Ig constant parts; also called AB27_143
B6: P018.S.09.A.A06 (antibody, V domains shown)
VH: QEQLKESGGGLVQPGESLTLTCTASGFSLSSYYMSWVRQAPGKGLEWIGMISTGGSAYYANWARGRFTISRTSTTVDLKVTSLTTEDTATYFCARGWRYEDLWGQGTLVTVSS
VL: AQVLTQTPSPVSAAVGSTVTINCQSSQTVYNNNYLAWYQQKPGQPPKLLIYDASNLASGVSSRFSGSGSGTQFTLTISDLESDDAATYYCQGTYYDNAWYHTFGGGTEVVVK
notes: V regions on human Ig constant parts; also called AB27_146
B7: P018.S.10.A.C02 (antibody, V domains shown)
VH: QSVEESGGRLVTPGTPLTLTCTVSGIDLSNYAMSWVRQTPGKGLEWIGAIGIGGNTYYASWAKGRFTISRTSTMVDLKVASPTPEDTATYFCARHAGAGVVNWLDLWGQGTLVTVSS
VL: DVVMTQTPASVSEPVGGTVTIKCQASQSIGSNLAWYQQKPGQPPKLLIYAASDLASGVPSRFSGSGSGTEFTLTISGVQSDDAATFYCQTYGSGSFSSFNLFGGGTEVVVK
notes: V regions on human Ig constant parts; also called AB27_171
B8: P018.S.10.A.B03 (antibody, V domains shown)
VH: QSLEESGGRLVTPGTPLTLTCTASGFSLSSYDMGWVRQAPGKGLEWIGIISSSGSTYYASWAKGRFTISKTSSTTVDLKMTSLTTEDTATYFCARTSLDGNLWGQGTLVTVSS
VL: AFEMTQTPSSVSEPVGGTVTIKCQASQSIYNYLSWYQQKPGQPPKLLIYDASALASGVPSRFKGSGSGTDFTLTISDLESADAATYYCQQDYSVSDVDNSFGGGTEVVVK
notes: V regions on human Ig constant parts; also called AB27_168
B9: P018.S.10.A.F04 (antibody, V domains shown)
VH: QSVEESGGRLVTPGTPLTLTCTASGFYLSSHYMSWVRQAPGKGLEWIGIIYATGIASYANWAKGRFTISKTSTTVSLKMTSPTTEDTATYFCARYDSQDYYGYGNLWGPGTLVTVSS
VL: AYDMTQTPASVEVAVGGTVTIKCQASQNIYNNLAWYQQKPGQRPKLLIYRASTLASGVSSQFKGSGSGTEYTLTISGVESADAATYYCQQGYSVHDVYNTFGGGTEVVVK
notes: V regions on human Ig constant parts; also called AB27_180
B10: P018.S.10.A.A03 (antibody, V domains shown)
VH: QSLEESGGRLVTPGTPLTLTCTVSGIDLSSYAMGWVRQAPGKGLEWIGTISTISNTYYASWANGRFTISKTSTTVDLKMTSLTASDTATYFCARGASNTINDYFNLWGQGTLVTVSS
VL: DIVMTQTPASVSEPVGGTVTIKCQASQSVGNYLAWYQQKPGQPPKLLIYDASNLASGVSSRFKGSGFATEFILTISDLESTDAATYYCHSYVYSSGNVYNGFGGGTEVVVK
notes: V regions on human Ig constant parts; also called AB27_163
B11: P018.S.08.A.G02 (antibody, V domains shown)
VH: QSVEESGGRLVTPGTPLTLTCTVSGFSLSTYAMSWVRQAPGKGLEWIGMNTRSGIIYYASWAKGRFTISKTSTTVHLKITSPTTEDTATYFCARDLYADVSGYYLGLWGPGTLVTVSS
VL: AQVLTQTPSSVSAAVGGTVTINCQASQSLYNNKNLAWYQQKPGQPPKLLIYYASTLASGVSSRFKGSGSGTQFTLTISDLESDDAATYYCQGEFICSSADCVVFGGGTAVVVK
B12: P018.S.04.A.F04 (antibody, V domains shown)
VH: QSVEESGGRLVTPGTPLTLTCTVSGFSLSNYAMSWVRQAPGKGLEWIGIIYASGTTYYARWAKGRFTISRTSTTVDLKISSPTTEDTATYFCAREYDSYDYAYGSSIYAFDPWGPGTLVTVSS
VL: AYDMTQTPSSVSAAVGGTVTIKCQASESIYSNLAWYQQKPGQRPKLLIYRASTLASGVSSRFKGSGSGTQFTLSISGVESADAATYYCQQGYSSSNVDNVFGGGTEVVVK
B13: P018.S.01.A.H06 (antibody, V domains shown)
VH: QEQLKESGGRLVKPDETLTITCTASGFSLSRYDMSWVRQAPGKGLEWIGSIWSDGDTDYANWAKGRFTISKTSTTVDLKITSPTTEDTATYFCARGYTAWSLWGPGTLVTVSS
VL: ALVMTQTPSPVSAAVGGTVTISCQSSESVVGNNALSWFQQKPGQPPKLLNYQASTLASGVSSRFSGSGSGTQFTLTISGVQSDDAATYYCQGTYYSSGWYFAFGGGTEVVVK
B14: P018.S.01.A.F05 (antibody, V domains shown)
VH: QEQLEESGGDLVKPEGSLTLTCTASGFSFSSSYWICWVRQAPGKGLEWIGCIITGRGNTYYANWAKGRFTISKTSSTTVTLQMTSLTAADTAIYSCARGPGGADPVNLWGPGTLVTVSS
VL: DVVMTQTPASVSEPVGGTVTIKCQASQSIYSNLAWYQQKPGQPPKLLIYRASTLTSGVPSRFKGSGSGTQFTLTISDLESADAATYYCQCTYDGSSYVPNAFGGGTEVVVK

target: T1, CD134 expressed on the cell surface of HT1080_OX40 cells (human, UniProt P43489 29-277); test: HT1080_OX40 cells, imaging; also: test concentration or dose not given here
T1 construct: whole, on cells; species not restated for the HT1080 transfectant
T1 sequence (looked up): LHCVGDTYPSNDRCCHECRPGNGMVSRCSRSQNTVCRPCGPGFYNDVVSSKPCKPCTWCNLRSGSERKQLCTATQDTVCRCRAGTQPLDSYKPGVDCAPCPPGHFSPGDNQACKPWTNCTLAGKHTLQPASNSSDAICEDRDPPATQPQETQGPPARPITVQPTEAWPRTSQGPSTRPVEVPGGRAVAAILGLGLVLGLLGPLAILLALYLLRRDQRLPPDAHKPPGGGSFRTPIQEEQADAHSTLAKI
For Functional assay Cross-linked by F(ab′)2 fragment IL-8 in this document: test concentration or dose not given here.
For Functional assay IL-8 in this document: test concentration or dose not given here.

Binder	Cellular binding assay [RFU]
B1	451
B2	419
B3	570

target: T1, CD134 expressed on the cell surface of …; test: cell-based or functional assay

Binder	EC 50 (IL-8 release, cross-linked) [µg/mL]
B1	0.669
B2	0.529
B3	0.745

target: T2, CD27 protein (His-tagged, Sino Biological Inc. 10039-H08B1) (human, UniProt P26842 20-192); test: ELISA, coated His-tagged CD27; also: test concentration or dose not given here
T2 construct: bought protein coated on ELISA plates; also called TNFRSF7; not shown: His tag
T2 sequence (looked up): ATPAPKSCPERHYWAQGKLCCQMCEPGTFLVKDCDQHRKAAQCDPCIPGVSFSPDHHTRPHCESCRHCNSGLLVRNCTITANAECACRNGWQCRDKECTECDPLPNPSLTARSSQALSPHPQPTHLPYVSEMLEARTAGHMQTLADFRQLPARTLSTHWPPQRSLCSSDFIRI

Binder	ELISA [abs. corr.]
B4	2.31
B5	2.95
B6	3.09
B7	2.9
B8	2.24
B9	2.89
B10	2.81

target: T3, CD27 expressed on the cell surface of HT1080_CD27 cells (human, UniProt P26842 20-260); test: cell-based or functional assay
T3 sequence (looked up): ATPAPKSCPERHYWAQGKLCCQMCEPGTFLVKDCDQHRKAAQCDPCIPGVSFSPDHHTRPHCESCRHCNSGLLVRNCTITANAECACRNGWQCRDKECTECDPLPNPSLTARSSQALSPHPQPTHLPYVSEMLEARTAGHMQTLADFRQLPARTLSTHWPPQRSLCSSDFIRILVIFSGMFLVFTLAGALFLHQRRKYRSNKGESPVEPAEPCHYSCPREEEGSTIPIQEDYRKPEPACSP

Binder	Functional assay Cross-linked by F(ab′)2 fragment IL-8 [abs. corr.]	Functional assay IL-8 [abs. corr.]
B4	2.21	0.189
B5	2.46	0.839
B6	2.25	2.19
B7	2.28	0.631
B8	2.07	-0.032
B9	2.32	0.273
B10	2.06	1.02

target: T1, CD134 expressed on the cell surface of …; test: cell-based or functional assay; remark: another data set of the same source

Binder	Functional assay Cross-linked by F(ab′)2 fragment IL-8 [abs. corr.]	Functional assay IL-8 [abs. corr.]
B1	2.41	-0.022
B2	2.54	0.314
B3	2.19	0.13

target: T4, CD134 protein (His-tagged, Sino Biological Inc. 10481-H08H) (human, UniProt P43489 29-216); test: ELISA, coated His-tagged CD134; also: test concentration or dose not given here
T4 construct: bought protein coated on ELISA plates; also called OX40; TNFRSF4; not shown: His tag
T4 sequence (looked up): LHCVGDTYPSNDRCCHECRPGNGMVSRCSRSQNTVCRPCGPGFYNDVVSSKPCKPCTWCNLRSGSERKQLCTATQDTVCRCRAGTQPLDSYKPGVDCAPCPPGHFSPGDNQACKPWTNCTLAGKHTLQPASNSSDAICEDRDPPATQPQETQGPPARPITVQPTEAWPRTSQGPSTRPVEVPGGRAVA

Binder	ELISA [abs. corr.]
B1	2.87
B2	2.72
B3	2.04

target: T3, CD27 expressed on the cell surface of …; test: cell-based or functional assay; remark: another data set of the same source

Binder	EC 50 (IL-8 release, cross-linked) [µg/mL]
B4	0.376
B11	1.94
B12	1.44
B13	2.35
B5	0.144
B6	0.387
B14	1.32
B7	0.414
B8	1.94
B9	1.27
B10	0.513

target: T3, CD27 expressed on the cell surface of …; test: HT1080_CD27 cells, imaging; also: test concentration or dose not given here

Binder	Cellular binding assay [RFU]
B4	11
B5	155
B6	113
B7	238
B8	19
B9	133
B10	198
